One assay has as its target T1, BMP4 (Homo sapiens, UniProt P12644).
T1 sequence (P12644 293-408): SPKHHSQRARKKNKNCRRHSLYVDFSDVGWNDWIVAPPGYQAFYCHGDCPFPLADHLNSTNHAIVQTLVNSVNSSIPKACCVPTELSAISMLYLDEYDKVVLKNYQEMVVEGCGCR
Kind of assay: BMP4 signal transduction inhibitory activity: SMAD1 phosphorylation by BMP4 stimulus, AlphaLISA SureFire, A549 cells. As to conditions: for aLISA BMP4: A549 cells; for aLIZA BMP4 (0.2 nM) % inh: peptide conc. in assay 0.02, 0.2, 2 nM, class symbols. The format is cell-based. On the technique in general: In Alpha technology, singlet oxygen from a donor bead excites a nearby acceptor bead.

For a further assay, the target named is T2, BMP7 (Homo sapiens, UniProt P18075).
T2 sequence (P18075 293-431): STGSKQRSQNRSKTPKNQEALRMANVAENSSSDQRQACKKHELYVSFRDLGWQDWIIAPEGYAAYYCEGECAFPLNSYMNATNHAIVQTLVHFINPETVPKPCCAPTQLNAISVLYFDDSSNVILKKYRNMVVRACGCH
Kind of assay: BMP7 signal transduction inhibitory activity: SMAD1 phosphorylation by BMP7 stimulus, A549 cells. The format is cell-based. As to conditions: for aLISA BMP7: A549 cells; for aLIZA BMP7 (10 nM) % inh: class symbols. The procedure, abridged: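 A549 cells were stimulated with 10 nM BMP7, and the read-out was SMAD1 phosphorylation. Peptides were tested at three concentrations spanning 1 to 1,000 nM, with sets depending on the peptide series. Some peptides were run in eight-point 1/3 dilutions starting from 100 nM or 1,000 nM, with recombinant human Noggin as positive control at matching concentrations.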

Where [1] appears, read: SMAD1 phosphorylation, BMP4 0.2 nM, peptide conc. in assay 0.2, 2, 20 nM.
Setting [2] is: SMAD1 phosphorylation, BMP7 10 nM, peptide conc. in assay 1, 10, 100 nM.
[3] abbreviates: SMAD1 phosphorylation, peptides of Synthesis 2, peptide 0.02, 0.2, 2 nM.
[4] abbreviates: 10 nM BMP7, peptides of Synthesis 2, peptide 1, 10, 100 nM.
[5] abbreviates: inhibition of SMAD1 phosphorylation by BMP4 stimulus, peptides of Synthesis 2, classes A-C, ND.
[6] abbreviates: inhibition of SMAD1 phosphorylation by BMP7 stimulus, peptides of Synthesis 2, classes A-D, ND.

The values that follow come from US20250361274A1, “PEPTIDE AND PEPTIDE-CONTAINING AGENT” (PEPTIDREAM INC., priority 2022, published 2025).

Numbered stars: 1 amine (or outer) side, 2 acyl side, 3 side chain; on linkers, the order of the positions; unused ones are H or OH. Bridge positions count the residues as written; N and C are the ends. Square brackets hold non-standard residues; d marks the D form. Side chains are listed from the residue outwards. Ends that are not written are not given here. Peptide text beside a SMILES is read from it. * marks the point of attachment. KCOpipzaa = N6-(4-(carboxymethyl)piperazine-1-carbonyl)-L-lysine, O=C(NCCCC[C@H](N[*:1])C(=O)[*:2])N1CCN(CC(=O)[*:3])CC1; Cha4tH = (S)-2-amino-3-((1r,4S)-4-hydroxycyclohexyl)propanoic acid, O=C([C@H](C[C@H]1CC[C@H](O[*:3])CC1)N[*:1])[*:2]; X7 = O=C(O)CCC(NC(=O)CCNC(=O)[C@H](CSCC(=O)[*:1])CC(=O)[C@H](CO)N[*:2])C(=O)O; Hgn = (S)-2,6-diamino-6-oxohexanoic acid, NC(=O)CCC[C@H](N[*:1])C(=O)[*:2]; 3Pal(6-Ph) = N[C@@H](Cc1ccc(-c2ccccc2)nc1)C(=O)O; Phe(4-COOH) = N[C@@H](Cc1ccc(C(=O)O)cc1)C(=O)O; Piperazinyl(4-CH2COOH) = O=C(O)CN1CCN(*)CC1; Bip = N[C@@H](Cc1ccc(-c2ccccc2)cc1)C(=O)O; Phe(3-Cl) = N[C@@H](Cc1cccc(Cl)c1)C(=O)O; Nle(6-COOH) = N[C@@H](CCCCC(=O)O)C(=O)O; X1 = N=C(CN)NCCC[C@H](N[*:1])C(=O)[*:2]; Hyp = O=C(O)[C@@H]1C[C@@H](O)CN1; NMeF = CN[C@@H](Cc1ccccc1)C(=O)O; 4Pal = N[C@@H](Cc1ccncc1)C(=O)O; Aad = N[C@@H](CCCC(=O)O)C(=O)O; Cha = N[C@@H](CC1CCCCC1)C(=O)O; Gly(cPr) = N[C@H](C(=O)O)C1CC1; CO = O=C([*:1])[*:2]; βAla = NCCC(=O)O

With “337 (FG[NMeF]G[Bip]GDD[Cha][Aad][NMeF]LHCG-NH2; not fully specified (N-terminus, bridges)) [compound 337]”, the “aLISA BMP4 (0.2 nM) % inh” value in the assay with BMP4 (setting [1]) is recorded as “ND (the inhibitory activity was less than 30% at the maximum concentration evaluated)”. For the same compound, the “aLISA BMP7 (10 nM) % inh” value with BMP7 (setting [2]) is “D (showed less than 30% of inhibitory activity in 10 nM-addition zone and showed 30% or more of inhibitory activity in 100 nM-addition zone)”.

For `CC(C)[C@@H]1NC(=O)[C@H](Cc2ccc(C(=O)O)cc2)NC(=O)[C@H](C(C)C)NC(=O)[C@H](CCCNC(=N)N)NC(=O)[C@H](CCC(=O)O)NC(=O)CSC[C@@H](C(=O)NCC(N)=O)NC(=O)[C@H](CO)NC(=O)[C@H](Cc2ccc(C(=O)O)cc2)NC(=O)[C@H](Cc2ccc(C(=O)O)cc2)NC(=O)[C@H](Cc2ccc(O)cc2)NC(=O)[C@H](Cc2ccc(-c3ccccc3)cc2)NC(=O)[C@@H]2C[C@@H](O)CN2C(=O)[C@H](Cc2ccc(O)cc2)NC(=O)[C@H](CCCCNC(=O)N2CCN(CC(=O)O)CC2)NC(=O)[C@H](Cc2ccc(-c3ccccc3)nc2)NC(=O)[C@H](CCCNC(=N)N)NC(=O)[C@H](CCCCNC(=O)N2CCN(CC(=O)O)CC2)NC1=O` [Peptide 277] ({CH2CO}-ERV[Phe(4-COOH)]VK([CO-Piperazinyl(4-CH2COOH)])R[3Pal(6-Ph)]K([CO-Piperazinyl(4-CH2COOH)])Y[Hyp][Bip]Y[Phe(4-COOH)][Phe(4-COOH)]SCG-NH2; thioether N-17), the IC50 is 0.073 nM at BMP4 (Table 2-2, 277 from 20 nM (1/3), 417 from 300 nM (1/4), ND = IC50 was not calculated) and 455 nM at BMP7 (Table 2-2, 277 from 1,000 nM (1/3), 417 from 300 nM (1/4)).

On to “411 (FG[NMeF]G[3Pal(6-Ph)]GDE[Cha][Aad][NMeF]L[Phe(4-COOH)]C[βAla][dE]) [compound 411]”, for which the “aLISA BMP4 (0.2 nM) % inh” value with BMP4 (BMP4 0.2 nM stimulus, peptide conc. in assay 0.2, 2, 20 nM) is given as “ND (the inhibitory activity was less than 30% at the maximum concentration evaluated)”. Also, the “aLISA BMP7 (10 nM) % inh” value with BMP7 (BMP7 10 nM stimulus, peptide conc. in assay 1, 10, 100 nM) was “D (showed less than 30% of inhibitory activity in 10 nM-addition zone and showed 30% or more of inhibitory activity in 100 nM-addition zone)”.

For the compound “33 ({CH2CO}-ARVYVDR[3Pal(6-Ph)]PYP[3Pal(6-Ph)][4Pal][Phe(4-COOH)][Phe(4-COOH)]SCG-NH2; thioether N-17; not fully specified) [compound 33]”, the “aLISA BMP4” value in the assay with BMP4 (setting [3]) was “C (showed an inhibitory activity of less than 50% in 0.2 nM-addition zone and showed an inhibitory activity of 50% or more in 2 nM-addition zone were defined as B or C)”. Further, the “aLISA BMP7” value with BMP7 (setting [4]) is reported as “ND (the inhibitory activity was less than 30% at the maximum concentration evaluated)”.

With “343 (FG[NMeF]G[Bip]GDD[Cha][Hgn][NMeF]LHCG-NH2; not fully specified (N-terminus, bridges)) [compound 343]”, in the assay with BMP4 (setting [1]), the “aLISA BMP4 (0.2 nM) % inh” value is “ND (the inhibitory activity was less than 30% at the maximum concentration evaluated)”. Moreover, the “aLISA BMP7 (10 nM) % inh” value with BMP7 (setting [2]) was “D (showed less than 30% of inhibitory activity in 10 nM-addition zone and showed 30% or more of inhibitory activity in 100 nM-addition zone)”.

“288 (ERV[Phe(4-COOH)][Cha4tH][KCOpipzaa]R[3Pal(6-Ph)][KCOpipzaa]Y[Hyp][Bip][4Pal][Phe(4-COOH)][Phe(4-COOH)]SCG-NH2; not fully specified (N-terminus, bridges); also: cyclic peptide, ring not given here) [compound 288]”: the “aLIZA BMP4 (0.2 nM) % inh” value in the assay with BMP4 (BMP4 0.2 nM stimulus) is “B (showed less than 30% of inhibitory activity in 0.02 nM-addition zone and showed 30% or more of inhibitory activity in 0.2 nM-addition zone)”. In the assay with BMP7 (BMP7 10 nM stimulus, peptide conc. in assay 100, 300, 1000 nM), the “aLIZA BMP7 (10 nM) % inh” value is listed as “F (showed 30% or more of inhibitory activity in 100 nM-addition zone)”.

In the case of “272 (ERV[Phe(4-COOH)][Gly(cPr)]DR[3Pal(6-Ph)]SYV[Bip][4Pal][Phe(4-COOH)][Phe(4-COOH)]SCG-NH2; not fully specified (N-terminus, bridges)) [compound 272]”, in the assay with BMP4 (BMP4 0.2 nM stimulus), the “aLIZA BMP4 (0.2 nM) % inh” value was “C (showed less than 30% of inhibitory activity in 0.2 nM-addition zone and showed 30% or more of inhibitory activity in 2 nM-addition zone)”. The “aLIZA BMP7 (10 nM) % inh” value in the assay with BMP7 (BMP7 10 nM stimulus, peptide conc. in assay 10, 100, 1000 nM) is reported as “ND (the inhibitory activity was less than 30% at the maximum concentration evaluated)”.

`CC(C)C[C@@H]1NC(=O)[C@H](Cc2ccc(O)cc2)NC(=O)[C@H](C(C)C)NC(=O)[C@H](CCCNC(=N)N)NC(=O)[C@H](CCCCC(=O)O)NC(=O)CSC[C@@H](C(=O)NCCC(=O)NC(CCC(=O)O)C(=O)O)CC(=O)[C@H](CO)NC(=O)[C@H](Cc2ccc(C(=O)O)cc2)NC(=O)[C@H](Cc2ccc(C(=O)O)cc2)NC(=O)[C@H](Cc2ccc(O)cc2)NC(=O)[C@H](Cc2ccc(-c3ccccc3)cc2)NC(=O)[C@H](C(C)C)NC(=O)[C@H](Cc2ccc(O)cc2)NC(=O)[C@@H]2CCCN2C(=O)[C@H](Cc2ccc(-c3ccccc3)nc2)NC(=O)[C@H](CCCNC(=N)CN)NC(=O)[C@H](CC(=O)O)NC1=O` (some centres unmarked) [SEQ ID No. 84] ([Nle(6-COOH)]RVYLD[X1][3Pal(6-Ph)]PYV[Bip]Y[Phe(4-COOH)][Phe(4-COOH)]; linker N-C via X7): the “aLISA BMP4” value on BMP4 (setting [5]) is on record as “A (showed an inhibitory activity of 50% or more in a zone to which the peptide was added to in an amount of 0.2 nM)”. Also, the “aLISA BMP7” value on BMP7 (setting [6]) was “C (showed less than 50% of inhibitory activity in 10 nM-addition zone and showed 50% or more of inhibitory activity in 100 nM-addition zone)”.

With “372 ([Phe(3-Cl)]G[NMeF]G[Bip]GDD[Cha]A[NMeF]LHCG-NH2; not fully specified (N-terminus, bridges); also: cyclic peptide, linkage not given here) [compound 372]”, the “aLISA BMP4 (0.2 nM) % inh” value with BMP4 (BMP4 0.2 nM stimulus, peptide conc. in assay 2, 20, 200 nM) is “ND (the inhibitory activity was less than 30% at the maximum concentration evaluated)”. In addition, the “aLISA BMP7 (10 nM) % inh” value with BMP7 (BMP7 10 nM stimulus, peptide conc. in assay 10, 30, 90 nM) was “G (showed less than 30% of inhibitory activity in 30 nM-addition zone and showed 30% or more of inhibitory activity in 90 nM-addition zone)”.

As for “49 (Ac-ARVYVDR[Bip]PYP[Bip]Y[Phe(4-COOH)][Phe(4-COOH)]SC[βAla]-PEG12Me; thioether (positions not given here); not fully specified (bridges)) [compound 49]”, the “aLISA BMP4” value with BMP4 (inhibition of SMAD1 phosphorylation by BMP4 stimulus, AlphaLISA, class by peptide concentration zone) was “C (showed an inhibitory activity of less than 50% in 0.2 nM-addition zone and showed an inhibitory activity of 50% or more in 2 nM-addition zone were defined as B or C)”. In the assay with BMP7 (inhibition of SMAD1 phosphorylation by BMP7 stimulus, AlphaLISA, class by peptide concentration zone), the “aLISA BMP7” value is “ND (the inhibitory activity was less than 30% at the maximum concentration evaluated)”.

Regarding “35 ({CH2CO}-AKVYVDK[Bip]PYP[Bip]Y[Phe(4-COOH)][Phe(4-COOH)]SCG-NH2; thioether N-17; not fully specified) [compound 35]”, the “aLISA BMP4” value with BMP4 (setting [3]) was “A (showed an inhibitory activity of 50% or more in a zone to which the peptide was added to in an amount of 0.2 nM)”. Moreover, the “aLISA BMP7” value in the assay with BMP7 (setting [4]) is on record as “ND (the inhibitory activity was less than 30% at the maximum concentration evaluated)”.

Turning to “22 ({CH2CO}-ARVYVKR[Bip][KCOpipzaa]YP[Bip]Y[Phe(4-COOH)][Phe(4-COOH)]SCG-NH2; thioether N-17; not fully specified) [compound 22]”, in the assay with BMP4 (setting [3]), the “aLISA BMP4” value is “A (showed an inhibitory activity of 50% or more in a zone to which the peptide was added to in an amount of 0.2 nM)”. Also, the “aLISA BMP7” value with BMP7 (setting [4]) is “C (showed less than 50% of inhibitory activity in 10 nM-addition zone and showed 50% or more of inhibitory activity in 100 nM-addition zone)”.

As for “96 ({CH2CO}-ERVYVDR[3Pal(6-Ph)]SYP[Bip]Y[Phe(4-COOH)][Phe(4-COOH)]SC[βAla][dE]-OH; thioether N-17; not fully specified) [compound 96]”, in the assay with BMP4 (setting [5]), the “aLISA BMP4” value was “A (showed an inhibitory activity of 50% or more in a zone to which the peptide was added to in an amount of 0.2 nM)”. Also, the “aLISA BMP7” value with BMP7 (setting [6]) is “C (showed less than 50% of inhibitory activity in 10 nM-addition zone and showed 50% or more of inhibitory activity in 100 nM-addition zone)”.

In general, IC50 refers to the concentration that gives 50% inhibition.
